Measured values reported in publication PMC12636033, “Chemical Engineering of Transcription Factors Uncovered Cell-Permeable μMax Modulators”.

Biological target: WT Max (Homo sapiens, UniProt P61244-2 13-93, M65Nle, norleucine written as M; other non-natural residues written as X)
Test: PBM; 50-200 nM protein; PBS, 2% milk, BSA, salmon testes DNA, 0.02% Triton X-100
Conditions: chain copies: 2; label: surface-attached array probe

Chain of WT Max (P61244 other isoform, or with tags, fused parts or gaps M65Nle): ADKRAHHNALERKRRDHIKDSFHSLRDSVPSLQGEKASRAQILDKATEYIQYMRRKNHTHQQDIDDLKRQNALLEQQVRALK

Binder | binding signal
dBr_Jan07_03400 (dsDNA) DNA 1: ACGTCGGCTATGATTTCACGCTATTCTAAGACACGTGTCTGTGTTCCGTTGTCCGTGCTG DNA 2: CAGCACGGACAACGGAACACAGACACGTGTCTTAGAATAGCGTGAAATCATAGCCGACGT | 4.73 robust z of log adjusted intensity (ours), mean of two arrays
dBr_Jan07_16171 (dsDNA) DNA 1: ATCACGTGCATCTACTAGACACCCCATGCGTTAGGCGTCTGTGTTCCGTTGTCCGTGCTG DNA 2: CAGCACGGACAACGGAACACAGACGCCTAACGCATGGGGTGTCTAGTAGATGCACGTGAT | 6.35 robust z of log adjusted intensity (ours), mean of two arrays
dBr_Jan07_25426 (dsDNA) DNA 1: TCTCTGTGCGGCGGGGTCCATAGCACGCACGTGTTAGTCTGTGTTCCGTTGTCCGTGCTG DNA 2: CAGCACGGACAACGGAACACAGACTAACACGTGCGTGCTATGGACCCCGCCGCACAGAGA | 4.48 robust z of log adjusted intensity (ours), mean of two arrays
dBr_Jan07_07207 (dsDNA) DNA 1: TCAGCCGCGTGGCACAATGTCCACAGGTAGGGTACAGTCTGTGTTCCGTTGTCCGTGCTG DNA 2: CAGCACGGACAACGGAACACAGACTGTACCCTACCTGTGGACATTGTGCCACGCGGCTGA | 5.41 robust z of log adjusted intensity (ours), mean of two arrays
dBr_Jan07_09790 (dsDNA) DNA 1: ATTCTAATGATTGCGTATACACGTGTCTTGAATTGGGTCTGTGTTCCGTTGTCCGTGCTG DNA 2: CAGCACGGACAACGGAACACAGACCCAATTCAAGACACGTGTATACGCAATCATTAGAAT | 4.37 robust z of log adjusted intensity (ours), mean of two arrays
dBr_Jan07_16923 (dsDNA) DNA 1: TGGGTCATGCTCGAACAGCGTCACTAGGTAGCACGTGTCTGTGTTCCGTTGTCCGTGCTG DNA 2: CAGCACGGACAACGGAACACAGACACGTGCTACCTAGTGACGCTGTTCGAGCATGACCCA | 4.47 robust z of log adjusted intensity (ours), mean of two arrays
dBr_Jan07_01836 (dsDNA) DNA 1: GTCGAGAATCCAATACGCCACGTGCATACGTACGTCGTCTGTGTTCCGTTGTCCGTGCTG DNA 2: CAGCACGGACAACGGAACACAGACGACGTACGTATGCACGTGGCGTATTGGATTCTCGAC | 3.94 robust z of log adjusted intensity (ours), mean of two arrays
dBr_Jan07_03962 (dsDNA) DNA 1: TGGCCGCCACGTGGCGCTCTGCGGTCACATGTTGGGGTCTGTGTTCCGTTGTCCGTGCTG DNA 2: CAGCACGGACAACGGAACACAGACCCCAACATGTGACCGCAGAGCGCCACGTGGCGGCCA | 4.57 robust z of log adjusted intensity (ours), mean of two arrays
dBr_Jan07_11943 (dsDNA) DNA 1: GGGCCGGTAAACGGACTGGTACGATGAAGCGCACGTGTCTGTGTTCCGTTGTCCGTGCTG DNA 2: CAGCACGGACAACGGAACACAGACACGTGCGCTTCATCGTACCAGTCCGTTTACCGGCCC | 4.72 robust z of log adjusted intensity (ours), mean of two arrays
dBr_Jan07_18904 (dsDNA) DNA 1: CCCGGATAATATTTCGGCTTCAAGAATCACGTGGAAGTCTGTGTTCCGTTGTCCGTGCTG DNA 2: CAGCACGGACAACGGAACACAGACTTCCACGTGATTCTTGAAGCCGAAATATTATCCGGG | 4.33 robust z of log adjusted intensity (ours), mean of two arrays
dBr_Jan07_32554 (dsDNA) DNA 1: CGACGTTGTCTGACGAATAATGCCGAGCGGACACGTGTCTGTGTTCCGTTGTCCGTGCTG DNA 2: CAGCACGGACAACGGAACACAGACACGTGTCCGCTCGGCATTATTCGTCAGACAACGTCG | 4.1 robust z of log adjusted intensity (ours), mean of two arrays
dBr_Jan07_04478 (dsDNA) DNA 1: AGTTGCGCCACTATGCCAAAACACCATTGAGCACGTGTCTGTGTTCCGTTGTCCGTGCTG DNA 2: CAGCACGGACAACGGAACACAGACACGTGCTCAATGGTGTTTTGGCATAGTGGCGCAACT | 4.55 robust z of log adjusted intensity (ours), mean of two arrays
dBr_Jan07_13408 (dsDNA) DNA 1: CCGCGCGCAGGCACTTAGGGTACCTGCTGTCCACGTGTCTGTGTTCCGTTGTCCGTGCTG DNA 2: CAGCACGGACAACGGAACACAGACACGTGGACAGCAGGTACCCTAAGTGCCTGCGCGCGG | 4.13 robust z of log adjusted intensity (ours), mean of two arrays
dBr_Jan07_27092 (dsDNA) DNA 1: GTTTAGAGGCTGTTTGCTGTCGCCCTACAACCACGTGTCTGTGTTCCGTTGTCCGTGCTG DNA 2: CAGCACGGACAACGGAACACAGACACGTGGTTGTAGGGCGACAGCAAACAGCCTCTAAAC | 4.94 robust z of log adjusted intensity (ours), mean of two arrays
dBr_Jan07_39189 (dsDNA) DNA 1: GGCTTGCATTGTTGGGCCCACGTGTTGATTGTCTAAGTCTGTGTTCCGTTGTCCGTGCTG DNA 2: CAGCACGGACAACGGAACACAGACTTAGACAATCAACACGTGGGCCCAACAATGCAAGCC | 4.2 robust z of log adjusted intensity (ours), mean of two arrays
dBr_Jan07_34584 (dsDNA) DNA 1: ATTGCCGCACCTGATGCATCGCCACGTGTTATAATCGTCTGTGTTCCGTTGTCCGTGCTG DNA 2: CAGCACGGACAACGGAACACAGACGATTATAACACGTGGCGATGCATCAGGTGCGGCAAT | 6.19 robust z of log adjusted intensity (ours), mean of two arrays
dBr_Jan07_23881 (dsDNA) DNA 1: CATATTAGACCGGCGTATACGCACGTGGCGTAGATTGTCTGTGTTCCGTTGTCCGTGCTG DNA 2: CAGCACGGACAACGGAACACAGACAATCTACGCCACGTGCGTATACGCCGGTCTAATATG | 4.35 robust z of log adjusted intensity (ours), mean of two arrays

Binder | binding signal
dBr_Jan07_28790 (dsDNA) DNA 1: CTATTCCGATGCCATAAAACTTTCCACTCCACGTGTGTCTGTGTTCCGTTGTCCGTGCTG DNA 2: CAGCACGGACAACGGAACACAGACACACGTGGAGTGGAAAGTTTTATGGCATCGGAATAG | 4.91 robust z of log adjusted intensity (ours), mean of two arrays
dBr_Jan07_19752 (dsDNA) DNA 1: TAAGCTTCGGTTCTCGTTCGGTACAACACGTGTATGGTCTGTGTTCCGTTGTCCGTGCTG DNA 2: CAGCACGGACAACGGAACACAGACCATACACGTGTTGTACCGAACGAGAACCGAAGCTTA | 4.26 robust z of log adjusted intensity (ours), mean of two arrays
dBr_Jan07_39019 (dsDNA) DNA 1: TCCTTCCCGACGGACAGTGCAATCTGATTATCACGTGTCTGTGTTCCGTTGTCCGTGCTG DNA 2: CAGCACGGACAACGGAACACAGACACGTGATAATCAGATTGCACTGTCCGTCGGGAAGGA | 4.91 robust z of log adjusted intensity (ours), mean of two arrays
dBr_Jan07_30895 (dsDNA) DNA 1: TTGCCGTATAGTGATCCTAAGCGTCCACGTGGATGAGTCTGTGTTCCGTTGTCCGTGCTG DNA 2: CAGCACGGACAACGGAACACAGACTCATCCACGTGGACGCTTAGGATCACTATACGGCAA | 4.78 robust z of log adjusted intensity (ours), mean of two arrays
dBr_Jan07_25672 (dsDNA) DNA 1: TCACGCACCCCGCAAGCGCAACCACGTGGTAAGGGTGTCTGTGTTCCGTTGTCCGTGCTG DNA 2: CAGCACGGACAACGGAACACAGACACCCTTACCACGTGGTTGCGCTTGCGGGGTGCGTGA | 6.01 robust z of log adjusted intensity (ours), mean of two arrays
dBr_Jan07_35732 (dsDNA) DNA 1: TAGTTGTATCTTGATCGCCGATTCCCCATGCCACGTGTCTGTGTTCCGTTGTCCGTGCTG DNA 2: CAGCACGGACAACGGAACACAGACACGTGGCATGGGGAATCGGCGATCAAGATACAACTA | 4.37 robust z of log adjusted intensity (ours), mean of two arrays
dBr_Jan07_00940 (dsDNA) DNA 1: GGATATGGCCCTCCCTACGAACACGTGGAGTTAGGCGTCTGTGTTCCGTTGTCCGTGCTG DNA 2: CAGCACGGACAACGGAACACAGACGCCTAACTCCACGTGTTCGTAGGGAGGGCCATATCC | 4.33 robust z of log adjusted intensity (ours), mean of two arrays
dBr_Jan07_12609 (dsDNA) DNA 1: TGATAAGGATCTACTTCAAGAGCACGTGTCATCTATGTCTGTGTTCCGTTGTCCGTGCTG DNA 2: CAGCACGGACAACGGAACACAGACATAGATGACACGTGCTCTTGAAGTAGATCCTTATCA | 4.35 robust z of log adjusted intensity (ours), mean of two arrays
dBr_Jan07_16409 (dsDNA) DNA 1: CGTTACTGGTGCACGTGTTCTCCTCTCCACCTTCAGGTCTGTGTTCCGTTGTCCGTGCTG DNA 2: CAGCACGGACAACGGAACACAGACCTGAAGGTGGAGAGGAGAACACGTGCACCAGTAACG | 4.95 robust z of log adjusted intensity (ours), mean of two arrays
dBr_Jan07_16225 (dsDNA) DNA 1: ACATTCCTAGCTATTACTTGGTAGCTCTCAGCACGTGTCTGTGTTCCGTTGTCCGTGCTG DNA 2: CAGCACGGACAACGGAACACAGACACGTGCTGAGAGCTACCAAGTAATAGCTAGGAATGT | 4.26 robust z of log adjusted intensity (ours), mean of two arrays
dBr_Jan07_01937 (dsDNA) DNA 1: AGCTTTTTATCTCTGTGGGCGGGTAACAACCATGTGGTCTGTGTTCCGTTGTCCGTGCTG DNA 2: CAGCACGGACAACGGAACACAGACCACATGGTTGTTACCCGCCCACAGAGATAAAAAGCT | 4.33 robust z of log adjusted intensity (ours), mean of two arrays
dBr_Jan07_36232 (dsDNA) DNA 1: CCATGCCAACTAGGCGCACGTGATTGTTCGAGAACTGTCTGTGTTCCGTTGTCCGTGCTG DNA 2: CAGCACGGACAACGGAACACAGACAGTTCTCGAACAATCACGTGCGCCTAGTTGGCATGG | 4.03 robust z of log adjusted intensity (ours), mean of two arrays
dBr_Jan07_25737 (dsDNA) DNA 1: TGCACGACCAGTCATCCACGTGTTTGCCCGCAAAGTGTCTGTGTTCCGTTGTCCGTGCTG DNA 2: CAGCACGGACAACGGAACACAGACACTTTGCGGGCAAACACGTGGATGACTGGTCGTGCA | 4.58 robust z of log adjusted intensity (ours), mean of two arrays
dBr_Jan07_01481 (dsDNA) DNA 1: CCGCCAGCATTTCCTGCTTTGCACGTGTAAGATACCGTCTGTGTTCCGTTGTCCGTGCTG DNA 2: CAGCACGGACAACGGAACACAGACGGTATCTTACACGTGCAAAGCAGGAAATGCTGGCGG | 4.74 robust z of log adjusted intensity (ours), mean of two arrays
dBr_Jan07_07176 (dsDNA) DNA 1: TATGCGTTGGCCATCTTAATTCCACGTGGTGTCCTCGTCTGTGTTCCGTTGTCCGTGCTG DNA 2: CAGCACGGACAACGGAACACAGACGAGGACACCACGTGGAATTAAGATGGCCAACGCATA | 4.6 robust z of log adjusted intensity (ours), mean of two arrays
dBr_Jan07_03225 (dsDNA) DNA 1: TTCTATCCCTAATCTCCGCGTGGCTACCCCTTCAAGGTCTGTGTTCCGTTGTCCGTGCTG DNA 2: CAGCACGGACAACGGAACACAGACCTTGAAGGGGTAGCCACGCGGAGATTAGGGATAGAA | 4.25 robust z of log adjusted intensity (ours), mean of two arrays
